From EP2748199B1 (Board of Regents, The University of Texas System, dated 2019)

Molecular target: T1, human OX40 (human, UniProt P43489 29-277)
T1 construct: whole, on cells; The construct used for transfection is not described; also called hOX40; OX40 receptor
T1 sequence (looked up): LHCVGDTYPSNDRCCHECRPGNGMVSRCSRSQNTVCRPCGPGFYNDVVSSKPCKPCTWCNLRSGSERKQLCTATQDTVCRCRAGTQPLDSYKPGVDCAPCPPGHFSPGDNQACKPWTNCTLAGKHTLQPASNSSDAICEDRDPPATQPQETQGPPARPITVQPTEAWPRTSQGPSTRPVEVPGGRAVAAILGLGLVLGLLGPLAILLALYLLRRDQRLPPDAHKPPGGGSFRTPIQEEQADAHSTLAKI
Assay: flow cytometry on L/OX40 cells, FITC goat anti-human IgG

EC50: 0.96 µg/mL
B1: chimeric 119-43-1 IgG1/κ antibody (antibody, V domains shown)
VH: EVKLEESGGGLVQPGGSMKLSCAASGFTFSDAWMDWVRQSPEKGLEWVAEIRSKANNHATYYAESVNGRFTISRDDSKSSVYLQMNSLRAEDTGIYYCTWGEVFYFDYWGQGTTLTVSS
VL: DIQMTQSPSSLSASLGGKVTITCKSSQDINKYIAWYQHKPGKGPRLLIHYTSTLQPGIPSRFSGSGSGRDYSFSISNLEPEDIATYYCLQYDNLLTFGAGTKLELKR
notes: also called Ch119-43-1
